Reference: patent US12319739 (F STAR DELTA, dated 2025)

Columns and labels:
[1] = biological target: human CD137 expressed on cells (human, UniProt Q07011 24-255); assay: cell-based or functional assay
human CD40 = human CD40 (human, UniProt P25942 21-193); assay: SPR, receptor amine-coupled ~1000 RU
Protocol: (§1) The specificity of the anti-human CD137 Fcabs for human CD137 compared to other related TNFSFR family members was tested. 8 of the Fcabs were tested in mock mAb^2 (HelD1.3) format and measured by SPR in a Biacore T200 (GE Healthcare) by testing for binding to other human TNFRSF receptors: CD40, OX40 and GITR. Amine coupling (amine coupling kit, GE Healthcare, BR-1000-50) was used to coat human CD40, GITR and OX40 to approximately 1000 RU in Biacore CM5 chips (GE Healthcare, cat no 29149603). […] The chip was regenerated by injection of 10 mM glycine pH 2.5 for 12 s at 30 µl/min. Antibodies specific to the different TNFRSF members were used as positive controls to verify Biacore chip coating. Data was double reference subtracted and analysed using BIAevaluation 3.2 software.

human OX40 = biological target: T1, human OX40 (human, UniProt P43489 29-216); assay: SPR, receptor amine-coupled ~1000 RU
T1 sequence (looked up): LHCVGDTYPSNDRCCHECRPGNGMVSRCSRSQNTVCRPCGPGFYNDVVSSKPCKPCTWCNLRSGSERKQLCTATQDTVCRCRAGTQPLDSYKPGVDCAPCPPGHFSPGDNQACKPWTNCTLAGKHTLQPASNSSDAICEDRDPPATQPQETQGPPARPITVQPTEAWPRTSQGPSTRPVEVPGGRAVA
Protocol: as §1

human GITR = biological target: T2, human GITR (human, UniProt Q9Y5U5 26-161, limits assumed); assay: SPR, receptor amine-coupled ~1000 RU
T2 sequence (looked up): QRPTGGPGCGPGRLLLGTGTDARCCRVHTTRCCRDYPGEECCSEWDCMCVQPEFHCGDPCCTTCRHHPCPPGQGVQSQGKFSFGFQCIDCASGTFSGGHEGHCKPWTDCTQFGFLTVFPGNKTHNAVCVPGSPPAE
Protocol: as §1

hCD137-mFc-Avi = biological target: T3, hCD137-mFc-Avi (human; mouse, UniProt Q07011 24-186, one biotin on each Avi tag in the biotinylated form); assay: SPR, mAb2 captured by anti-human Fab, antigen in solution
T3 construct: also called human dimeric CD137; human CD137-mFc-Avi
Protocol: (§2) Each mAb^2 was captured to approximately 150 RU by injecting a 3 µg/ml solution of mAb^2 diluted in HBS-EP+buffer (GE Healthcare #BR1006-69) for 60 seconds at 30 µl/min. Then different concentrations of human, cyno or mouse CD137 antigen (unbiotinylated human, cyno or mouse CD137-mFc-Avi or human CD137-Avi-His) in HBS-EP+buffer were flowed over the chip for 3 min at 60 µl/min and then allowed to dissociate for 10 minutes. After each antigen concentration the chip was regenerated by injecting 10 mM glycine pH 2.1 at a flow rate of 30 µl/min for 30 seconds. Buffer HBS-EP+ was injected before the highest concentration of antigen and after the lowest concentration of antigen for reference subtraction, and one of the concentrations at random was repeated twice. The binding kinetics were fit with a 1:1 Langmuir model to generate equilibrium binding constants (K_D) for each sample. Data analysis was performed with BiaEvaluation software version 3.2.

hCD137-Avi-His = biological target: T4, hCD137-Avi-His (human, UniProt Q07011 24-186, single biotin on the Avi tag in the biotinylated form); assay: as above
T4 construct: Monomer; also called human monomeric CD137; human CD137-Avi-His
Protocol: as §2

cCD137-mFc-Avi = biological target: T5, cCD137-mFc-Avi (cynomolgus; mouse, one biotin on each Avi tag in the biotinylated form); assay: as above
T5 construct: also called cynomolgus dimeric CD137; cyno CD137-mFc-Avi
T5 chain: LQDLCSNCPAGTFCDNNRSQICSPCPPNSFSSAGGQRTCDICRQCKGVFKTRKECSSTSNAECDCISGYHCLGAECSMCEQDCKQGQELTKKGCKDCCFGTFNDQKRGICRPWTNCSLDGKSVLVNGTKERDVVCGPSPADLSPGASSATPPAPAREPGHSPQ
Protocol: as §2

T3 sequence (Q07011 24-186): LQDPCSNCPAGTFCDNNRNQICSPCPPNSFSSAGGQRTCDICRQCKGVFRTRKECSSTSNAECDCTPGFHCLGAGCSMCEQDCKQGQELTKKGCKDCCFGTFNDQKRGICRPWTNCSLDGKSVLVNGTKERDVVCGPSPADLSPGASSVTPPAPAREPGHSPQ
T4 sequence (Q07011 24-186): as above
Chain of human CD137 expressed on cells (Q07011 24-255): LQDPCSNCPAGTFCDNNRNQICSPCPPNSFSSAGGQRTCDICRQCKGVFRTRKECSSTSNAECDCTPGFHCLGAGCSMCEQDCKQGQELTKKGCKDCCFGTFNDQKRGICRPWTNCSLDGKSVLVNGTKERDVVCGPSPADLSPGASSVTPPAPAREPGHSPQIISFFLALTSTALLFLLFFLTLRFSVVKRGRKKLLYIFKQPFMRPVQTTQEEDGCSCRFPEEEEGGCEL
Chain of human CD40 (P25942 21-193 limits assumed): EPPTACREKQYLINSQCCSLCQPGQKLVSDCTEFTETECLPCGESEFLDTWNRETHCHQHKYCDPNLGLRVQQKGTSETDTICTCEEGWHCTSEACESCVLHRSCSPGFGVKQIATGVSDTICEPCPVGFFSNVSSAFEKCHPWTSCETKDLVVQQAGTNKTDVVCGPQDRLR

B1: FS22-172-003/HelD1.3 (bispecific antibody, human IgG1, kappa, L234A L235A)
heavy: QVQLQESGPGLVRPSQTLSLTCTVSGSTFSGYGVNWVRQPPGRGLEWIGMIWGDGNTDYNSALKSRVTMLVDTSKNQFSLRLSSVTAADTAVYYCARERDYRLDYWGQGSLVTVSSASTKGPSVFPLAPSSKSTSGGTAALGCLVKDYFPEPVTVSWNSGALTSGVHTFPAVLQSSGLYSLSSVVTVPSSSLGTQTYICNVNHKPSNTKVDKKVEPKSCDKTHTCPPCPAPEAAGGPSVFLFPPKPKDTLMISRTPEVTCVVVDVSHEDPEVKFNWYVDGVEVHNAKTKPREEQYNSTYRVVSVLTVLHQDWLNGKEYKCKVSNKALPAPIEKTISKAKGQPREPQVYTLPPSRDELPYIIPPYNQVSLTCLVKGFYPSDIAVEWESNGQPENNYKTTPPVLDSDGSFFLYSKLTVGADRWLEGNVFSCSVMHEALHNHYTQKSLSLSPG
light: DIQMTQSPASLSASVGETVTITCRASGNIHNYLAWYQQKQGKSPQLLVYNAKTLADGVPSRFSGSGSGTQYSLKINSLQPEDFGSYYCQHFWSTPRTFGGGTKLEIKRTVAAPSVFIFPPSDEQLKSGTASVVCLLNNFYPREAKVQWKVDNALQSGNSQESVTEQDSKDSTYSLSSTLTLSKADYEKHKVYACEVTHQGLSSPVTKSFNRGEC
notes: IgG1
[1]
  NF-κB luciferase reporter EC50, HEK.FRT.luc.hCD137 cells, crosslinked with Protein L (+XL): 32.6 nM
Human CD40
  binding result: no binding (tested: 1 µM)
Human OX40
  binding result: no binding (tested: 1 µM)
Human GITR
  binding result: no binding (tested: 1 µM)
hCD137-mFc-Avi
  Kd: 1.5 nM
hCD137-Avi-His
  human monomeric CD137 KD fold difference relative to human dimeric KD: > 200 fold
cCD137-mFc-Avi
  Kd: 1.3 nM
